One block for each binder: values may come before it.
How the values were obtained:
PRBP1 = target: T1, PRBP1 (human, UniProt P26599 1-557); test: co-IP, anti-FLAG, lysate of cells with N-FLAG B3GNT2; mass spectrometry
T1 construct: Label 'PRBP1' is probably a misprint of PTBP1; also called NP_002810.1 (+4)
Protocol: Cells were plated in 10-cm cell culture dishes and grown to 60-80% confluency. For each condition, two biological replicates were harvested for co-IP. Cells were washed with PBS and 4 mL of lysis buffer (20 mM HEPES, 1% Triton X-100, 150 mM NaCl, 1 mM EDTA, and 10% glycerol) containing protease inhibitor cocktail was added. Cells were scraped and lysate was incubated at 4° C. under rotary agitation for 1 h. Lysate was centrifuged at 14,000×g for 10 min at 4° C. Supernatant was transferred to a new tube and an aliquot was taken as the input. […] For Western blots, 10 μg/mL Chicken Anti-FLAG (Aves labs ET-DY100) and IgY control (R&D Systems AB-101-C) antibodies were biotinylated (Thermo Fisher Scientific 90407) and added to the respective conditions. Lysates with antibodies were incubated at 4° C. under rotary agitation overnight. For each mL of lysate, 50 μL of Pierce Protein A/G Magnetic Beads (Mass spectrometry; Thermo Fisher Scientific 88803) or Pierce Streptavidin Magnetic Beads (Western blot; Thermo Fisher Scientific 88817) was washed twice with lysis buffer. Lysates with antibodies were added to the beads and incubated at 4° C. under rotary agitation for 4 h. Beads were washed with lysis buffer 3 times and resuspended in lysis buffer for storage.
Magnetic beads were resuspended in 100 mM Tris pH 7.8, reduced, alkylated and digested with trypsin at 37° ° C. overnight. This solution was subjected to solid phase extraction to concentrate the peptides and remove unwanted reagents followed by injection onto a Shimadzu HPLC with fraction collector. Eight fractions were collected and after concentration were injected on a Waters NanoAcquity HPLC equipped with a self-packed Aeris 3 μm C18 analytical column 0.075 mm by 20 cm, (Phenomenex). Peptides were eluted using standard reverse-phase gradients. The effluent from the column was analyzed using a Thermo Orbitrap Elite mass spectrometer (nanospray configuration) operated in a data dependent manner for 54 minutes. The resulting fragmentation spectra were correlated against the known database using Proteome Discover 1.4 (Thermo Fisher Scientific).

RRP12 = target: T2, RRP12 (human, UniProt Q5JTH9-3 1-1236, limits assumed); test: co-IP with anti-FLAG, mass spectrometry; lysate of cells with N-FLAG B3GNT2
T2 construct: also called NP_001138586.1 (+4)
T2 sequence (looked up): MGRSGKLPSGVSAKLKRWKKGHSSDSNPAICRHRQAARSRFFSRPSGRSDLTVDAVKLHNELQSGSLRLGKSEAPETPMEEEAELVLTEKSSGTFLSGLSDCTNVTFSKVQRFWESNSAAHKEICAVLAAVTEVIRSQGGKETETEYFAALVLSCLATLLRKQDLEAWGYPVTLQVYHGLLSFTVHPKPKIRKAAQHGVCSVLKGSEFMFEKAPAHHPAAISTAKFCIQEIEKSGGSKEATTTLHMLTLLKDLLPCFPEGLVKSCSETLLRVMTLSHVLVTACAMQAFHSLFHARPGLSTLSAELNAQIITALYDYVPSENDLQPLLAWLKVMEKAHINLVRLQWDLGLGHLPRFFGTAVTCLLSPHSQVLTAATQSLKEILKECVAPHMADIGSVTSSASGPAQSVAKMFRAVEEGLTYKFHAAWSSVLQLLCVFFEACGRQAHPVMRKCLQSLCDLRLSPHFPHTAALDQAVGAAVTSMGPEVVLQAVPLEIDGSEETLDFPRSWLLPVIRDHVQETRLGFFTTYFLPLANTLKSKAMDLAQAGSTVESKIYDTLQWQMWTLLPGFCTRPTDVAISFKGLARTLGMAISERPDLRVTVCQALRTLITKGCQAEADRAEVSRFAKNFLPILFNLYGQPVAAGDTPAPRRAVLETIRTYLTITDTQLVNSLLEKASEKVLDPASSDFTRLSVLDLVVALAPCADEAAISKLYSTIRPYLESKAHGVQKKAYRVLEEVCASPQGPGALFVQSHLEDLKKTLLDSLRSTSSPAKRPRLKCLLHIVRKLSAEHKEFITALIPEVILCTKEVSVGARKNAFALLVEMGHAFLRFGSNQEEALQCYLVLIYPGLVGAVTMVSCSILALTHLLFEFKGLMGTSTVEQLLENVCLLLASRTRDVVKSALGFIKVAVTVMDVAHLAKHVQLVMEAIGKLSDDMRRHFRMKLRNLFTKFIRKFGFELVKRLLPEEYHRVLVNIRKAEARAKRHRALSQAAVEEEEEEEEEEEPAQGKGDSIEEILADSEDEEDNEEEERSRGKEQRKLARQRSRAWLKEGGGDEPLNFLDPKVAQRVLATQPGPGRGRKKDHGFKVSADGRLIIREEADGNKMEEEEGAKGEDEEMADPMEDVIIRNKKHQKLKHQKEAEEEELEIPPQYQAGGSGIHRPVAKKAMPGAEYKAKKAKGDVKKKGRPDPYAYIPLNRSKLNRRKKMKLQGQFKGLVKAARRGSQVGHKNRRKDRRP

T1 sequence (P26599 whole entry): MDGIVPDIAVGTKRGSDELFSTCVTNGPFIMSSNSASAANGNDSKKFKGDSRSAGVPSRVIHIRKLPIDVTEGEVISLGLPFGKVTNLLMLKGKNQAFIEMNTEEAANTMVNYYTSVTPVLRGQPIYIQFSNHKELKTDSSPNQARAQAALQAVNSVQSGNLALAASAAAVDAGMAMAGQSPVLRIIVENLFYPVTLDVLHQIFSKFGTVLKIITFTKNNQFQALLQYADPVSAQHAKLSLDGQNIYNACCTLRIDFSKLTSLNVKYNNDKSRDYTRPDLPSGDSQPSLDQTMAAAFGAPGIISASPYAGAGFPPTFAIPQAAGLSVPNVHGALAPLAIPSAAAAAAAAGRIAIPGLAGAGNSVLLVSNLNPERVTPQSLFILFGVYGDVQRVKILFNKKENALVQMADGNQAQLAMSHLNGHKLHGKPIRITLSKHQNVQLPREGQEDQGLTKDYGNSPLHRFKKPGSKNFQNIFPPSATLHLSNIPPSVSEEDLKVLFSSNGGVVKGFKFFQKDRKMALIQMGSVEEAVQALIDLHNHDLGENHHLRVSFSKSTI

co-IP mass spectrometry count (PRBP1): 6
B1: N-terminal FLAG tagged B3GNT2 (enzyme, human, UniProt Q9NY97 1-397, looked up)
chain: MSVGRRRIKLLGILMMANVFIYFIMEVSKSSSQEKNGKGEVIIPKEKFWKISTPPEAYWNREQEKLNRQYNPILSMLTNQTGEAGRLSNISHLNYCEPDLRVTSVVTGFNNLPDRFKDFLLYLRCRNYSLLIDQPDKCAKKPFLLLAIKSLTPHFARRQAIRESWGQESNAGNQTVVRVFLLGQTPPEDNHPDLSDMLKFESEKHQDILMWNYRDTFFNLSLKEVLFLRWVSTSCPDTEFVFKGDDDVFVNTHHILNYLNSLSKTKAKDLFIGDVIHNAGPHRDKKLKYYIPEVVYSGLYPPYAGGGGFLYSGHLALRLYHITDQVHLYPIDDVYTGMCLQKLGLVPEKHKGFRTFDIEEKNKNNICSYVDLMLVHSRKPQEMIDIWSQLQSAHLKC
notes: Overexpressed in cells and pulled down from the lysate with mouse anti-FLAG antibody; also called N-FLAG B3GNT2; N-term FLAG; not shown: N-terminal FLAG tag

co-IP mass spectrometry count (RRP12): 0
B2: N-terminal FLAG tagged B3GNT2 (enzyme, human, UniProt Q9NY97 1-397, looked up)
chain: B1 chain
notes: Bait of the co-IP; pulled down with mouse anti-FLAG (Millipore Sigma F3165) from cell lysate; also called N-FLAG B3GNT2; N-term FLAG; not shown: N-terminal FLAG tag
